The record followed here is PMC6969506 (Proceedings of the National Academy of Sciences of the …, 2020).

The series concerns the molecule itself. The series can be described thus: SEC-MALS.

B1: CDTb construct lacking the C-terminal RBD2 (residues 212 to 751; CDTb∆RBD2) (domain or fragment)
chain: SDWEDEDLDTDNDNIPDSYERNGYTIKDLIAVKWEDSFAEQGYKKYVSNYLESNTAGDPYTDYEKASGSFDKAIKTEARDPLVAAYPIVGVGMEKLIISTNEHASTDQGKTVSRATTNSKTESNTAGVSVNVGYQNGFTANVTTNYSHTTDNSTAVQDSNGESWNTGLSINKGESAYINANVRYYNTGTAPMYKVTPTTNLVLDGDTLSTIKAQENQIGNNLSPGDTYPKKGLSPLALNTMDQFSSRLIPINYDQLKKLDAGKQIKLETTQVSGNFGTKNSSGQIVTEGNSWSDYISQIDSISASIILDTENESYERRVTAKNLQDPEDKTPELTIGEAIEKAFGATKKDGLLYFNDIPIDESCVELIFDDNTANKIKDSLKTLSDKKIYNVKLERGMNILIKTPTYFTNFDDYNNYPSTWSNVNTTNQDGLQGSANKLNGETKIKIPMSELKPYKRYVFSGYSKDPLTSNSIIVKIKAKEEKTDYLVPEQGYTKFSYEFETTEKDSSNIEITLIGSGTTYLDNLSITELNSTPEILDEP
As usually defined, the stoichiometry N is the number of molecules, sites or subunits per partner or assembly. In the case of B1, the “stoichiometry N” value is 7.
